The values that follow come from article PMC3241658.

The target in the series is T1, TWINKLE (UniProt Q96RR1 32-684).
T1 sequence: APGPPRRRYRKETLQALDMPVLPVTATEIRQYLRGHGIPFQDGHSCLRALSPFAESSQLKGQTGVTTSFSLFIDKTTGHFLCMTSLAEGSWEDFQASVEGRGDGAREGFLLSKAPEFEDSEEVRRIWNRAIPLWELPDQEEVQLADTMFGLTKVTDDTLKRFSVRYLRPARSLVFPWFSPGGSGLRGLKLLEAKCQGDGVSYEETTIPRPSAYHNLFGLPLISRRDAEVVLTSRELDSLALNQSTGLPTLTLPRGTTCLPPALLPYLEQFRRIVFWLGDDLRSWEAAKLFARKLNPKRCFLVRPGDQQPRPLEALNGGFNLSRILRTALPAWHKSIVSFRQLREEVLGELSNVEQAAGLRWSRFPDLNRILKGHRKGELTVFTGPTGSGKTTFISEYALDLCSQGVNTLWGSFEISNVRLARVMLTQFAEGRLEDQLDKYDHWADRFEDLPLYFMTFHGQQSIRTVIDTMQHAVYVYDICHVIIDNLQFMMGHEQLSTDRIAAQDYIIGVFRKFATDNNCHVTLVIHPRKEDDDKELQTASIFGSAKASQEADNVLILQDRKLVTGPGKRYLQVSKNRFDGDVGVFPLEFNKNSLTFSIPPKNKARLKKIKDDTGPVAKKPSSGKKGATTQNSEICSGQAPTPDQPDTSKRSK
As to the kind of experiment: EMSA.

B1: closed circular ssDNA (100 nt) (ssDNA)
DNA: GAGGGGTATGTTTTTTTTTTTTTTTTTTTTTTTTTTTTTTTTTTTTTTTTTTTTTTTTTTTTTTTTTTTTTTTTTTTTTTTTTTTTTTTTCATACCCCTAT
On to B1, for which the binding result was “binds”.

B2: linear dsDNA (100 bp) (dsDNA)
DNA 1: GATTTTTTTTTTTTTTTTTTTTTTTTTTTTTTTTTTTTTCATACCCCTATGAGGGGTATGTTTTTTTTTTTTTTTTTTTTTTTTTTTTTTTTTTTTTTAT
DNA 2: ATAAAAAAAAAAAAAAAAAAAAAAAAAAAAAAAAAAAAAACATACCCCTCATAGGGGTATGAAAAAAAAAAAAAAAAAAAAAAAAAAAAAAAAAAAAATC
Take B2: the binding result is listed as “binds”.

B3: linear ssDNA (100 nt) (ssDNA)
DNA: B2 DNA 1
Take B3: the binding result is recorded as “binds”.
